We go through four molecules from patent US9068161B2, “Laccases and uses thereof” (DEINOVE, priority 2010, dated 2015).

The nature of series [1]: Temperature and pH optimum of laccase activity. As to conditions: 2,6 DMP as substrate. The format is biochemical. Here is the method:
(§1) Standard assays for laccase activity were performed at the temperature range from 30° C. to 90° C. by measurement of enzymatic oxidation of substrates at appropriate wavelength. The reaction was performed in presence of a substrate concentration range, 0.05 mg/mL of purified enzyme and 1 mM prepared in 0.1M citrate-phosphate buffer pH8.
In another series of experiments, the laccase activity according to the invention, was also tested in different conditions of temperature and pH using various substrates.

Series [2] in a line: Laccase assay, overall conclusion on recombinant enzyme. As to conditions: in the tested conditions. The format is biochemical. How it is done:
as §1
Standard assays were performed using the following substrates: 2,6 DMP, 4-methyl DMP, synapic acid, syringic acid, guaiacol, ABTS, paraphenylenediamine and ferulic acid.
Reagent A (185 μl) was mixed with Reagent B (10 μl). The mixture was equilibrated to 45° C. or 60° C. The absorbance at 470 nm was monitored until constant, using a suitably thermoregulated spectrophotometer. Then Reagent C (5 μl) was added and the increase in A470 nm was recorded for 30 minutes. The ΔA470 nm/minute was obtained using the maximum linear rate for the Test, Control and Blank, Blank being mixture without enzyme and Control being mixture with laccase from Trametes versicolor (T. versicolor, commercial enzyme) replacing Laccase enzyme solution (Reagent C).
Other substrates, different from 2,6 DMP such as 4-methyl DMP, synapic acid, syringic acid, guaiacol, ABTS, paraphenylenediamine and ferulic acid have also been tested at optimal concentration for each substrate (as shown in Tables 1A and 1B).

Substrate in series [3]: COc1cccc(OC)c1O
Put plainly: Laccase assay, Laccase 2 activity (oxidation of substrates, spectrophotometric). Format: biochemical, Deinococcus cellulolysiticus DRH46. To be noted: other: 60° C., pH 8, 0.1M citrate-phosphate buffer, 0.05 mg/mL purified enzyme. The text has this: (§2) Two enzymes having laccase activity have been characterized from Deinococcus cellulolysiticus DRH46 (namely laccase 1, laccase 2), and one enzyme having laccase activity has been characterized from Deinococcus maricopensis DSM 21211 (i.e., laccase 3). The amino acid sequences of laccase 1, laccase 2 and laccase 3 are represented in SEQ ID NO: 2, 4 and 6, respectively.
(§3) As mentioned in Example 1, nucleic acids encoding the laccase 1, 2 and 3 enzymes comprising the amino acid sequence of SEQ ID NO: 2, 4 or 6 respectively, were cloned into the pETDEST42 vector according to conventional recombinant techniques. In each vector, the cloned nucleic acid was cloned in frame with a 6(His) tag (SEQ ID NO: 7), to facilitate purification of the recombinant protein.
(§4) E. coli cells harboring the recombinant nucleic acid are prepared and grown in 4 liters of LB medium. Induction of the enzyme production is performed overnight in the presence of 1 mM IPTG and 2 mM of […]. […]
(§5) The assay is performed at T=45° C. and 60° C., pH=8. The absorbance was measured at A470 nm and the measure was carried out using Continuous Spectrophotometric Rate Determination. […]
(§6) Reagent A (185 μl) was mixed with Reagent B (10 μl). […] The absorbance at 470 nm was monitored until constant, using a suitably thermoregulated spectrophotometer. Then Reagent C (5 μl) was added and the increase in A470 nm was recorded for 30 minutes. […]

Substrate in series [4]: COc1ccccc1O
The series is described as above. Format: biochemical, Deinococcus cellulolysiticus DRH46. As to conditions: other: 60° C., pH 8, 0.1M citrate-phosphate buffer, 0.05 mg/mL purified enzyme.
From the text: as §2, §3, §4, §5, §6

Substrate in series [5]: COc1cccc(OC)c1O
Put plainly: Laccase assay, Laccase 1 activity (oxidation of substrates, spectrophotometric). The format is biochemical, Deinococcus cellulolysiticus DRH46. To be noted: other: 60° C., pH 8, 0.1M citrate-phosphate buffer, 0.05 mg/mL purified enzyme.
From the text: as §2, §3, §4, §5, §6

Substrate in series [6]: COc1ccccc1O
The description is as above. As to conditions: other: 60° C., pH 8, 0.1M citrate-phosphate buffer, 0.05 mg/mL purified enzyme. Format: biochemical, Deinococcus cellulolysiticus DRH46.
From the text: as §2, §3, §4, §5, §6

B1: Laccase 1: enzyme having laccase activity from Deinococcus cellulolysiticus DRH46, amino acid sequence SEQ ID NO: 2, recombinant with 6(His) tag (protein)
chain: MKQRLTAAALLTALLSSCAMKNPDVISYQDPEPLAGQRSGKAAEFTLTAQKSRLDLAGQSVEALTYNGTFPGPLLTLKAGEDVRITLKNNLSEPTNLHLHGLPLSPEVDDPFVVVPPGGSHTYAFQVPEEVHGTFWYHTHTHGASAAQLFSGLAGPLLVEAAKPNNPIEHMETHTVVFKDLPGAQHADDGVLMNGRENTLLVNGLVSPTLKTENSWVQLRLINASNARYLRLKLDDGLLQVVARDGIDLPGMERAQELLLTPGERADVLVSLQDHQNLKLQNLPYDRGVHSMGSHSGHTESKTAVVLTLQGPQKPGASVPRVETAPPPFLQLQGNEKVRKVILQETMQPVKFFINGRSFDMNRVDFHVSEGSTEIWELQNTTEMDHPFHLHTFPMQLIRIGGKEVPPVWKDTVNIPKNSTVTVAVHFKGFTGKTVFHCHIAEHEEAGMMGLLQVHPSGTALPASLEPIEPTVGPGEDAQHGH
modifications: 6xHis tag; Laccase 1 derived from Deinococcus cellulolyticus DRH46
As to B1, in series [1], the “Optimal pH” value was determined as 8 and the Optimal temperature was 90 °C. Moreover, the “Laccase activity of the recombinant enzyme” value in series [2] is “fully active”.

B2: Deinococcus cellulolysiticus DRH46 laccase 2, recombinant, SEQ ID NO: 4 (Deinococcus cellulosilyticus NBRC 106333 = KACC 11606) (protein)
chain: PKGSPMTEYHNPAEVQASRTEKGSTFTLTAAETSITLDGKEVKAQLFNQSFPGPQLTLQAGEQVNLTLKNDLREPTNLHLHGLTLPAGVDDPFLQVQPGESHTYSFTVPQGLHGTFWYHTHTHGHLGTQLFQGLAGPLIVEDPTFDSHIQGMETHTVVLKDLPVEVQDSDGTRMNGREGKLLVNGLSSPTLKTESSWVRLRLINASNARYDLLKLSGSAFLHVIAKDGIDLPKTEQVKELLLTPGERADVLISVQDQQDLRLENHPYDRGVHEMDGGHQGHTPSTPEVLLTLQGKKGSVSASVPQPALQPRPFLKVTGNEAIRKVVLQETMQPVKFFINGRTFDMNRVDFHVSEGTTEIWEVENQTEMDHPFHLHTFPVQVLSVNGQEVPPVWKDTVNVPAKAKVQVAVKFEGFTGKTVFHCHIAEHEEEGMMGVLQVHPAGEALPASLTPTLPPAAASEDMPDMPGMDHSGH
The Km is the concentration of substrate that gives half-maximal velocity. With B2, the values for the Michaelis constant (Km) in series [3] and in series [4] were 992 ± 141 µM and 5074 ± 343 µM, respectively.

B3: Deinococcus cellulolysiticus DRH46 laccase 1, recombinant, SEQ ID NO: 2 (Deinococcus cellulosilyticus NBRC 106333 = KACC 11606) (protein)
chain: NPDVISYQDPEPLAGQRSGKAAEFTLTAQKSRLDLAGQSVEALTYNGTFPGPLLTLKAGEDVRITLKNNLSEPTNLHLHGLPLSPEVDDPFVVVPPGGSHTYAFQVPEEVHGTFWYHTHTHGASAAQLFSGLAGPLLVEAAKPNNPIEHMETHTVVFKDLPGAQHADDGVLMNGRENTLLVNGLVSPTLKTENSWVQLRLINASNARYLRLKLDDGLLQVVARDGIDLPGMERAQELLLTPGERADVLVSLQDHQNLKLQNLPYDRGVHSMGSHSGHTESKTAVVLTLQGPQKPGASVPRVETAPPPFLQLQGNEKVRKVILQETMQPVKFFINGRSFDMNRVDFHVSEGSTEIWELQNTTEMDHPFHLHTFPMQLIRIGGKEVPPVWKDTVNIPKNSTVTVAVHFKGFTGKTVFHCHIAEHEEAGMMGLLQVHPSGTALPASLEPIEPTVGPGEDAQHGH
As to B3, the figures for the Km in series [5] and in series [6] were 798 ± 35 µM and 3046 ± 183 µM, respectively.

B4: Laccase 2: enzyme having laccase activity from Deinococcus cellulolysiticus DRH46, amino acid sequence SEQ ID NO: 4, recombinant with 6(His) tag (protein)
chain: MIRTLTSLTLLTVALTACAPKGSPMTEYHNPAEVQASRTEKGSTFTLTAAETSITLDGKEVKAQLFNQSFPGPQLTLQAGEQVNLTLKNDLREPTNLHLHGLTLPAGVDDPFLQVQPGESHTYSFTVPQGLHGTFWYHTHTHGHLGTQLFQGLAGPLIVEDPTFDSHIQGMETHTVVLKDLPVEVQDSDGTRMNGREGKLLVNGLSSPTLKTESSWVRLRLINASNARYDLLKLSGSAFLHVIAKDGIDLPKTEQVKELLLTPGERADVLISVQDQQDLRLENHPYDRGVHEMDGGHQGHTPSTPEVLLTLQGKKGSVSASVPQPALQPRPFLKVTGNEAIRKVVLQETMQPVKFFINGRTFDMNRVDFHVSEGTTEIWEVENQTEMDHPFHLHTFPVQVLSVNGQEVPPVWKDTVNVPAKAKVQVAVKFEGFTGKTVFHCHIAEHEEEGMMGVLQVHPAGEALPASLTPTLPPAAASEDMPDMPGMDHSGH
modifications: 6xHis tag; Laccase 2 derived from Deinococcus cellulolyticus DRH46
Regarding B4, in series [1], the “Optimal pH” value is 8 and the Optimal temperature is 70 °C. Moreover, the “Laccase activity of the recombinant enzyme” value in series [2] is “fully active”.
